Our source for the amyloid nucleation score values is the supplement of paper PMC12042874.

± gives the uncertainty stated by the source.

The data set is described as follows: amyloid nucleation score (Sup35N fusion, yeast selection) (log enrichment); library NNK3; higher = more nucleation; inactive = no reads after selection. The essentials:
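Output and input plasmid inserts were sequenced by Illumina after psi-negative yeast carrying Sup35N fused to peptides of 20 random codons had been induced 24 hours with 100 μM copper sulfate and grown 7 days at 30°C on medium lacking adenine and uracil. The nucleation score is the DiMSum log enrichment of output over input reads, centred on the mode score of non-aggregating sequences. Sequences with under 100 input reads were excluded.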

Take DALVYVLGSCMWIGASSTSA: the amyloid nucleation score was -0.354 ± 1.1.
For CFCVDADIIRTLMVCDIILS the value was 1.12 ± 0.099.
AVALY: the amyloid nucleation score entry is “inactive”.
The value for VMVSPPFTYWSRYVDYEYGE was “inactive”; that for LNKCLAGFIHMEVWILRMKL was “inactive”; that for CFSYSLGVLVTYRGCYRSVL was “inactive”.
For MLLVLR the value was 0.972 ± 0.1.
As for SALEKVDGATSIEVLPTNRR, the amyloid nucleation score entry was “inactive”.
For LCTNLYWVQFIMEPEEGVIQ the value was 1.54 ± 0.082; for HWAVRH, 0.212 ± 0.42; for SVDEVRCTCVYSCGVWPGGC, “inactive”.
Turning to LIYDRHSWNHWSSQHVDRDG, the amyloid nucleation score entry was “inactive”.
For DHCRNKQCVPTWDAYLEQ the value was -0.339 ± 0.52; for IMNHLLSRVVCFLDKIVHMG, “inactive”; for FCFYICGLGFY, “inactive”.
The value for YYGVDHLLNWIPFACTARLG was “inactive”; that for YGNLFSYAVMSRDLVSWGPV was “inactive”; that for WGCEIRANLLITSWVSVTVG was “inactive”.
For the substance LAVLIVDKPYADETHRLLVR, the amyloid nucleation score result is “inactive”.
For GFSCVNFFAWIL the value was 1.81 ± 0.082; for SVDYQGYNGKKYLFTISLRC, “inactive”.
On to NRATVYMTQAKGCCSALFQV, for which the amyloid nucleation score is 0.315 ± 0.3.
On to YSSSFIWMAYESIYFFLIFI, for which the amyloid nucleation score entry was “inactive”.
On to NWVQSSMNQ, for which the amyloid nucleation score entry is “inactive”.
On to ILDTEHYLMYKVSPAVASLS, for which the amyloid nucleation score entry was “inactive”.
The value for RCYKMLDLSILDIRYIVMLR was “inactive”.
The value for AYNQSRILGVDLACRNELLC was “inactive”.
Consider SQVVTVRCPDSSLCEIFSWG, for which the amyloid nucleation score entry was “inactive”.
On to GKVATHSIHDYFELSMTKGC, for which the amyloid nucleation score entry is “inactive”.
For NSMYYPYQVVRWLVDWHVIR the value was “inactive”; for CPVLGCMSTGEYHCFLTQTY, “inactive”; for CRRIYPFRP, -0.064 ± 0.66.
The value for AWLSLVCVDVGTTPFSHNDR was “inactive”; that for NSRLFAYKLKLVV was “inactive”.
For LGCKESSVPPARVRGPGQAI the value was “inactive”; for KSVNLHA, “inactive”.
For FLLNQIIGQLKHHLFVVSVN, the amyloid nucleation score result is “inactive”.
The value for VCIWSIETNVCSGCVKIKGF was “inactive”.
For the substance NHSVNAARNLQHQSYCKKSV, the amyloid nucleation score entry was “inactive”.
For TVLYWRLRQMMRFRLFSSNW the value was “inactive”; for YYGFYTNYFMCGV, 2.77 ± 0.062.
The value for RTIYTLPSCEIEGDLWHLSG was “inactive”; that for ISRGVVIGTFRRLIERSCGT was “inactive”; that for QGLPVSVSFVGEIYLLLF was 2.32 ± 0.053.
TDYLFLSKWVTLCLSVWCNY: the amyloid nucleation score is -0.084 ± 0.3.
For the substance SLFIYGHYEHKHSGSLKFFA, the amyloid nucleation score result was “inactive”.
The value for VNEPDSVFMT was “inactive”.
For PSENKRGFPDLVFAMINSGI the value was “inactive”; for KADECS, “inactive”; for NQYQSLSRRCSAGALGALVV, “inactive”.
For CSGYVNGLVIQGKCAKDVVW the value was “inactive”.
In the case of IVYLDIDVFFMFLCVASRTE, the amyloid nucleation score was 1.59 ± 0.081.
For VLFKYTSRIMDCVKTLKPLK, the amyloid nucleation score result is “inactive”.
The value for MICESFVSLLLVKCELLGTA was “inactive”; that for DISSKY was “inactive”; that for MRYSFRCF was “inactive”.
The value for SHIDAIAQGNTVSSCGYV was “inactive”.
The value for RSSDSDMSLECKAVE was “inactive”; that for AYSYRGHGLGMDGAGPVCLI was “inactive”; that for TCFESLGLDVPIPYNRWVRS was “inactive”.
Take YTVILRVRGSMSAMQSMKFS: the amyloid nucleation score entry was “inactive”.
Consider CQPSF, for which the amyloid nucleation score entry is “inactive”.
Take NYKLQKHAWMNYSAHQECLF: the amyloid nucleation score result is “inactive”.
For the substance SVSLCFYFGIDYRILLMPEN, the amyloid nucleation score is 0.088 ± 0.73.
For the substance HGRAYSRNT, the amyloid nucleation score entry was “inactive”.
RFYRCNYYRM came in with an amyloid nucleation score of 2.17 ± 0.084.
For the substance TRSIVY, the amyloid nucleation score result was “inactive”.
Turning to NYRPRKKVFGLR, the amyloid nucleation score was -0.005 ± 0.88.
The value for LSECRKD was “inactive”; that for LLVQLLLCKLKSMRLCCTVF was “inactive”.
The value for KPNLRFLS was “inactive”; that for FLMRCISLGGTGANFLLELS was “inactive”; that for TVYIAYTCVAVRSHSEHLFD was “inactive”.
The value for RTRFQITCQEETTCPRFS was 0.92 ± 0.16; that for SGCCLDSLYLTIRLDCLRWR was “inactive”; that for PTGFLLPDAGWKIYTGSLDV was “inactive”.
Consider PYLAGWRSLIPFNTSLCSGC, for which the amyloid nucleation score entry was “inactive”.
In the case of IWGMIFIGKSSYDISDYVCH, the amyloid nucleation score entry is “inactive”.
Take IGWYYSYITRKSENWVLVAL: the amyloid nucleation score result was “inactive”.
As to DHVGCATNRSDVDVTVFV, the amyloid nucleation score entry is “inactive”.
For WIAVPRVGTWVGEKMS the value was “inactive”; for LRSFKSKICVERLRDEIILL, “inactive”.
KGNRFPRVLGIMFAFLFGSE: the amyloid nucleation score result was “inactive”.
For MVCFYHTGELPDWENR the value was “inactive”; for TLVLVTRQLSFCRMDSRIEF, “inactive”.
For IFGCFSCSVSMFIDNAVMSL the value was 2.55 ± 0.066; for YPKRMCDRHS, “inactive”; for IVCCGSGSEEVGKLSGRIKN, “inactive”.
Turning to IEDAMVFLGTNSQTICLFNV, the amyloid nucleation score result is “inactive”.
For TVMDVLCECYMIVFRG the value was 0.875 ± 0.13; for FFLAGLFCAISV, “inactive”.
The value for MFTGGMFRKVTIQIL was “inactive”; that for TAIYIDRNECSLKVYRIKDK was 0.612 ± 0.44; that for TTILLTFDTGTIS was “inactive”.
For the substance HNQTDSASVIWFSYVWAFVG, the amyloid nucleation score entry is “inactive”.
LTTRGRNTRSEDMGEPGLWA: the amyloid nucleation score result is “inactive”.
